T1: estrogen receptor (ER) (UniProt P03372 1-595, limits assumed)
T1 construct: In vitro translated; 35S-labelled in the column experiment
T1 sequence (looked up): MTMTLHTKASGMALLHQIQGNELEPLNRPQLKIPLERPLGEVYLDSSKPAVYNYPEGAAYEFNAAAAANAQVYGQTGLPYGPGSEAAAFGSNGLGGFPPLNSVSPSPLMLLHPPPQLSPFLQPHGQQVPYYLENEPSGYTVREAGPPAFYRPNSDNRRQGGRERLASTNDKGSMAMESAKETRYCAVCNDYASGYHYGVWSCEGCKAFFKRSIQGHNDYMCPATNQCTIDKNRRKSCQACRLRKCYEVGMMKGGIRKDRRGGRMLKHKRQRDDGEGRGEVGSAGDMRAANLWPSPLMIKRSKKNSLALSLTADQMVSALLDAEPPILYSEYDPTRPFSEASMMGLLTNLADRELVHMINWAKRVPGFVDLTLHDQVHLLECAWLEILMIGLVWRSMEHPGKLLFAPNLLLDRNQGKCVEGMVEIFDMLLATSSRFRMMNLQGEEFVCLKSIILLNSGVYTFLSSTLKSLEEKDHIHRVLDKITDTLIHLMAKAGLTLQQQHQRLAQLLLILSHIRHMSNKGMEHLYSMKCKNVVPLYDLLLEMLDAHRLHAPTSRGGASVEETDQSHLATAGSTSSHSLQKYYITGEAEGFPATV

T2: retinoic acid receptor RARα (UniProt P10276 1-462, limits assumed)
T2 construct: mature; In vitro translated
T2 sequence (looked up): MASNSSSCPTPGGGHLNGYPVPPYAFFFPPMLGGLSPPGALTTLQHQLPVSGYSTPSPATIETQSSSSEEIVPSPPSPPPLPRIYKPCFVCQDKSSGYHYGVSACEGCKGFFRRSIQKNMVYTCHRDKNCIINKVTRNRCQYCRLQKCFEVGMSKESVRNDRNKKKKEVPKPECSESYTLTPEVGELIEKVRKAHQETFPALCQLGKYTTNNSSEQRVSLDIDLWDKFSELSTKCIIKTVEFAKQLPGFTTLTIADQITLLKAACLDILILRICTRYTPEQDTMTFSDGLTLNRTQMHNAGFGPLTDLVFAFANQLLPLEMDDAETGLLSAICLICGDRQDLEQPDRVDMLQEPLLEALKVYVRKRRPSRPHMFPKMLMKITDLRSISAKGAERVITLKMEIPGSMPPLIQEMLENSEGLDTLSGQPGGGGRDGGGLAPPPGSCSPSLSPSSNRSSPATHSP

T3: retinoic acid receptor RARβ (UniProt P10826 1-455, limits assumed)
T3 construct: mature; In vitro translated
T3 sequence (looked up): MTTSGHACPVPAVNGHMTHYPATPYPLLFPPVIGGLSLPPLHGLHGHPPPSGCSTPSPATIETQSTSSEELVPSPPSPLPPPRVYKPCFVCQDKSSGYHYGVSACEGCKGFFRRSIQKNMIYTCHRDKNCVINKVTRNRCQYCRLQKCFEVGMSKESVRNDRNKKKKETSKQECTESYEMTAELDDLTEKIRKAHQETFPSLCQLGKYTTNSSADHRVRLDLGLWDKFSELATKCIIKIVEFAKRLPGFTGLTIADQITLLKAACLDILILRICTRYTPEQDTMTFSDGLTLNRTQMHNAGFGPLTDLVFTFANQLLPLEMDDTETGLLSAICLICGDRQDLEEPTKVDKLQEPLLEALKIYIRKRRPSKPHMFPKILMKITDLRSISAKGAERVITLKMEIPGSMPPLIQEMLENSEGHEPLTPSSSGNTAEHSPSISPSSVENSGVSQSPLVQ

T4: retinoic acid receptor RARγ (UniProt P13631 1-454, limits assumed)
T4 construct: mature; In vitro translated
T4 sequence (looked up): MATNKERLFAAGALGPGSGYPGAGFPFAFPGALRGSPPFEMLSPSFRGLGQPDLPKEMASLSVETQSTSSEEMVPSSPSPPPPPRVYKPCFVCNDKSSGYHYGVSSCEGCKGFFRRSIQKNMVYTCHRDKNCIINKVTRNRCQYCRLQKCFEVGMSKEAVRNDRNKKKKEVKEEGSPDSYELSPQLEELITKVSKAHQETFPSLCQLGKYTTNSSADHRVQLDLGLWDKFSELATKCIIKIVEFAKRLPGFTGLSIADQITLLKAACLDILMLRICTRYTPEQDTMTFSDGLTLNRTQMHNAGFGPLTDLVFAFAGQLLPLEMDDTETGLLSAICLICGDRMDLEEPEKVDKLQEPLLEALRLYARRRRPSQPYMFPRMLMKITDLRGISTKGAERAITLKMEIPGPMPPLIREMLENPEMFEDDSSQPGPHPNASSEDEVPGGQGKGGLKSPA

T5: retinoid x receptor (RXRα) (human, UniProt P19793 1-462)
T5 construct: mature; In vitro translated full length receptor; 35S-labelled in the column and immunoprecipitation experiments
T5 sequence (looked up): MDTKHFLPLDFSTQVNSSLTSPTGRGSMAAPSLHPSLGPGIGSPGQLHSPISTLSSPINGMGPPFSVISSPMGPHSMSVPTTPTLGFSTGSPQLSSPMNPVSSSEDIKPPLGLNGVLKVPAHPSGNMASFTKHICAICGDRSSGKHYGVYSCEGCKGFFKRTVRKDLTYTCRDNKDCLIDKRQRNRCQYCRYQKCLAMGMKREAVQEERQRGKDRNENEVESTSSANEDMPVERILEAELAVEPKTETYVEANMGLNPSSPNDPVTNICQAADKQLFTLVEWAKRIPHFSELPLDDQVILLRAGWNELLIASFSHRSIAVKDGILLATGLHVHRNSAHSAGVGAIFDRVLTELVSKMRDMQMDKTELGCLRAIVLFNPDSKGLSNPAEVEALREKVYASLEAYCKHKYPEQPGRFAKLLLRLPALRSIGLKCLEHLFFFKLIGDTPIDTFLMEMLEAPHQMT

T6: FLAG-RXRα (human, UniProt P19793 1-462)
T6 construct: mature; in vitro translated; also called F-RXRα
T6 sequence: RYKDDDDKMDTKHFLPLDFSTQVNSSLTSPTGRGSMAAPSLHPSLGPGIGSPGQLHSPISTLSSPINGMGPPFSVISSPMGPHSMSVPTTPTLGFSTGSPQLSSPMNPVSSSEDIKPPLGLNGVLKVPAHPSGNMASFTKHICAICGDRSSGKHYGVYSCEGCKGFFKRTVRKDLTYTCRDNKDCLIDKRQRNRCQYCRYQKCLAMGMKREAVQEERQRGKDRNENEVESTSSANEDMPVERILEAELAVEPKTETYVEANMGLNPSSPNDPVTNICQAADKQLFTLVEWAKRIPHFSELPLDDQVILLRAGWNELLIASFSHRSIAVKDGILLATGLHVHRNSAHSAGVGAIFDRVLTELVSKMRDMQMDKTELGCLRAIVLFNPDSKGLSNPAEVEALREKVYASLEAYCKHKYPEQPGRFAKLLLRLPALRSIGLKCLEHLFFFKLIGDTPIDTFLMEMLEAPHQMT

B1: glutathione S-transferase-RARγ fusion protein (bacterially expressed FLAG-RARγ fusion protein) (other)
chain: RYKDDDDKMATNKERLFAAGALGPGSGYPGAGFPFAFPGALRGSPPFEMLSPSFRGLGQPDLPKEMASLSVETQSTSSEEMVPSSPSPPPPPRVYKPCFVCNDKSSGYHYGVSSCEGCKGFFRRSIQKNMVYTCHRDKNCIINKVTRNRCQYCRLQKCFEVGMSKEAVRNDRNKKKKEVKEEGSPDSYELSPQLEELITKVSKAHQETFPSLCQLGKYTTNSSADHRVQLDLGLWDKFSELATKCIIKIVEFAKRLPGFTGLSIADQITLLKAACLDILMLRICTRYTPEQDTMTFSDGLTLNRTQMHNAGFGPLTDLVFAFAGQLLPLEMDDTETGLLSAICLICGDRMDLEEPEKVDKLQEPLLEALRLYARRRRPSQPYMFPRMLMKITDLRGISTKGAERAITLKMEIPGPMPPLIREMLENPEMFEDDSSQPGPHPNASSEDEVPGGQGKGGLKSPA
notes: mature; FLAG-RARγ cDNA cloned in frame into pGex-2T, expressed in bacteria, purified on glutathione sepharose 4B; also called RARγ-glutathione transferase fusion protein; glutathione transferase-RARγ; not shown: glutathione S-transferase encoded by the expression vector pGEX-2T (Pharmacia); vector linker not described
B2: RXRαm7 (receptor, human, UniProt P19793 1-462, looked up)
chain: MDTKHFLPLDFSTQVNSSLTSPTGRGSMAAPSLHPSLGPGIGSPGQLHSPISTLSSPINGMGPPFSVISSPMGPHSMSVPTTPTLGFSTGSPQLSSPMNPVSSSEDIKPPLGLNGVLKVPAHPSGNMASFTKHICAICGDRSSGKHYGVYSCEGCKGFFKRTVRKDLTYTCRDNKDCLIDKRQRNRCQYCRYQKCLATGLHVHRNSAHSAGVGAIFDRVLTELVSKMRDMQMDKTELGCLRAIVLFNPDSKGLSNPAEVEALREKVYASLEAYCKHKYPEQPGRFAKLLLRLPALRSIGLKCLEHLFFFKLIGDTPIDTFLMEMLEAPHQMT
notes: In vitro translated deletion mutant
B3: thyroid hormone receptor TRβ (receptor, human, UniProt P10828 1-461, looked up)
chain: MTPNSMTENGLTAWDKPKHCPDREHDWKLVGMSEACLHRKSHSERRSTLKNEQSSPHLIQTTWTSSIFHLDHDDVNDQSVSSAQTFQTEEKKCKGYIPSYLDKDELCVVCGDKATGYHYRCITCEGCKGFFRRTIQKNLHPSYSCKYEGKCVIDKVTRNQCQECRFKKCIYVGMATDLVLDDSKRLAKRKLIEENREKRRREELQKSIGHKPEPTDEEWELIKTVTEAHVATNAQGSHWKQKRKFLPEDIGQAPIVNAPEGGKVDLEAFSHFTKIITPAITRVVDFAKKLPMFCELPCEDQIILLKGCCMEIMSLRAAVRYDPESETLTLNGEMAVTRGQLKNGGLGVVSDAIFDLGMSLSSFNLDDTEVALLQAVLLMSSDRPGLACVERIEKYQDSFLLAFEHYINYRKHHVTHFWPKLLMKVTDLRMIGACHASRFLHMKVECPTELFPPLFLEVFED
notes: mature; In vitro translated; also called TR-B; c-erb-A-B
B4: RXRαm2 (receptor, human, UniProt P19793 1-387, looked up)
chain: MDTKHFLPLDFSTQVNSSLTSPTGRGSMAAPSLHPSLGPGIGSPGQLHSPISTLSSPINGMGPPFSVISSPMGPHSMSVPTTPTLGFSTGSPQLSSPMNPVSSSEDIKPPLGLNGVLKVPAHPSGNMASFTKHICAICGDRSSGKHYGVYSCEGCKGFFKRTVRKDLTYTCRDNKDCLIDKRQRNRCQYCRYQKCLAMGMKREAVQEERQRGKDRNENEVESTSSANEDMPVERILEAELAVEPKTETYVEANMGLNPSSPNDPVTNICQAADKQLFTLVEWAKRIPHFSELPLDDQVILLRAGWNELLIASFSHRSIAVKDGILLATGLHVHRNSAHSAGVGAIFDRVLTELVSKMRDMQMDKTELGCLRAIVLFNPDSKGLSNPA
notes: range: lacks the carboxyterminal 75 amino acids; In vitro translated deletion mutant

Columns and labels:
[1] = system: RXRα-TRα and RXRα-RARα complexes; experiment: Gel retardation assay of RXRα interaction with TRα or RARα on palindromic TRE; assay type: binding
estrogen receptor (ER) = target: T1, estrogen receptor (ER); experiment: glutathione sepharose affinity column, 35S-labelled ER, no DNA
[2] = target: B3; experiment: gel retardation, 32P palindromic TRE (data not shown)
[3] = target: T2, retinoic acid receptor RARα; experiment: as above
[4] = target: T3, retinoic acid receptor RARβ; experiment: as above
[5] = target: T4, retinoic acid receptor RARγ; experiment: gel retardation, 32P palindromic TRE, in vitro translated receptors
Procedure: (§1) After incubation at room temperature for 45 minutes, the effect of antibody on slow migrating complexes was analyzed by gel retardation using ^32-labelled palindromic TRE as a probe. As a control, receptor mixtures were also incubated with preimmune serum (NI).
(§2) In vitro translated receptor protein (1 to 5 µl depending on the translation efficiency) was incubated with the ^32P-labeled oligonucleotides in a 20-µl reaction mixture containing 10 mM hepes buffer, pH 7.9, 50 mM KCl, 1 mM DTT, 2.5 mM MgCl, 10% glycerol, and 1 µg of poly(dI-dC) at 25° C. for 20 minutes. In general, relative low receptor concentration was used to obtain the clear effect of heterodimer formation. The reaction mixture was then loaded on a 5% nondenaturing polyacrylamide gel containing 0.5× TBE (1×TBE=0.089 M TRIS-borate, 0.089 M boric acid, and 0.002 M EDTA). […] When antibody was used, 1 µl of the antiserum was incubated with the specific translation products at room temperature for 45 minutes before performing the experiments described above.

[6] = target: T5, retinoid x receptor (RXRα); experiment: as above
Procedure: as §1, §2

FLAG-RXRα = target: T6, FLAG-RXRα; experiment: as above
Procedure: as §1, §2

Row | binding result [2] | binding result [3] | binding result [4] | binding result [5] | Molecule | further results
1 |  |  |  |  | N[C@@H](Cc1cc(I)c(Oc2ccc(O)c(I)c2)c(I)c1)C(=O)O [T3] | effect on migration rate of the TRα complex ([1]; T3 10^−7 M): slightly increases the migration rate; influence of hormone on formation of slow migrating complexes ([1]; hormone 10^−7 M, TRα and RARα with RXRα): no clear influence
2 |  |  |  |  | B1 | binding result (estrogen receptor (ER)): no binding
3 | no binding | no binding | no binding | no binding | B2 | 
4 |  |  |  |  | B3 | binding result [6]: binds; binding result (FLAG-RXRα): binds
5 | no binding | no binding | no binding | no binding | B4 | 

From patent publication US7098310B1, “Heterodimers of retinoid X receptors (RXRS) and other steroid hormone receptors” (Ligand Pharmaceuticals, priority 1991, dated 2006)
